From paper PMC314469, “Protein Interaction Networks by Proteome Peptide Scanning” (PLoS Biology, 2004) come the findings set out here.

The target of assay [1] is endophilin SH3 (SH3G2_HUMAN), Q99962. Briefly: SPOT array.
In assay [2] the target is T1, amphyphisin SH3 (AMPH_HUMAN), P49418.
T1 chain: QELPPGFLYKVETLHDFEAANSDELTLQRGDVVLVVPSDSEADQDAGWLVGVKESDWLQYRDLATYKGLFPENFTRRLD
Put plainly: SPOT array.

Regarding ANLQPKRPKTIKQR [Q9NXX2 8-21], the normalised SPOT signal, Boehringer light units (BLU); mean over the file's lines of this peptide is 55.4 in assay [1] and 23.6 in assay [2].
For KSLRIARPPKQGLN [P49815 945-958] the same measures were 398 and 168.
For KPVSPRRPWSPSKE [Q9HCL7 1184-1197] the same measures were 1760 and 226.
Take KSLPLRRPSYTLGM [O43166 958-971]: the normalised SPOT signal, Boehringer light units (BLU); mean over the file's lines of this peptide in assay [1] was determined as 322; in assay [2] it was 51.5.
Regarding KPGSPYRPPVPRAP [Q14687 646-660], the normalised SPOT signal, Boehringer light units (BLU); mean over the file's lines of this peptide amounted to 1840 in assay [1] and 201 in assay [2].
For KRNSLKRPRDVDHR [Q9H8U9 166-179] the same measures were 0 and 27.9.
Take KPRQIKRPLEDAIE [Q9UNI5 8-21]: the normalised SPOT signal, Boehringer light units (BLU); mean over the file's lines of this peptide was determined as 30.7 in assay [1] and 57.1 in assay [2].
For KTHPLIRPFKTLTE [Q15413 2649-2662] the same measures were 148 and 87.1.
With KRIKLRRPRVSKQR [Q96FU1 26-39], the normalised SPOT signal, Boehringer light units (BLU); mean over the file's lines of this peptide is 20.7 in assay [1] and 12.4 in assay [2].
For KSLKLRRPLYAHLA [Q13304 138-151] the same measures were 38.4 and 31.7.
For KTKGPSRPPLDAKI [Q9HC16 39-53] the same measures were 2250 and 29.
For KNRTFLRPPKVKME [O75937 248-261], the figures for the normalised SPOT signal, Boehringer light units (BLU); mean over the file's lines of this peptide in assay [1] and in assay [2] were 55.9 and 77.8, respectively.
For KPEGLRRPPSKTSM [Q15047 1069-1082] the same measures were 41.2 and 32.3.
For KPASPKKPPPGERR [Q9UQ36 1183-1197] the same measures were 779 and 43.2.
For KPPKPPKPPRPPKT [Q9Y6N4 506-520] the same measures were 16900 and 3550.
Consider KQVSPRRPQATEAV [Q9Y3H2 190-203], for which the normalised SPOT signal, Boehringer light units (BLU); mean over the file's lines of this peptide in assay [1] was 125; in assay [2], 147.
For KTFGIRRPLDPLDP [Q9C0J1 326-339] the same measures were 41.5 and 36.6.
For KPASPKKPPPGERS [O60382 1692-1706] the same measures were 737 and 56.
For APALPARPHRGLST [Q9UFL7 72-85] the same measures were 37600 and 5990.
As to KTEKPERPSRERDR [Q02241 662-675], the normalised SPOT signal, Boehringer light units (BLU); mean over the file's lines of this peptide was 403 in assay [1] and 9120 in assay [2].
For KRKKFKRPPQRLFD [O00267 328-341] the same measures were 22.5 and 57.4.
For KQYMLRRPALEDYV [Q9NWS7 207-220] the same measures were 148 and 79.4.
For KPPKPPRPPKTLKL [Q9Y6N4 509-523] the same measures were 25300 and 1290.
Regarding KPQPPARPPPPVLP [Q9UKL5 750-764], the normalised SPOT signal, Boehringer light units (BLU); mean over the file's lines of this peptide in assay [1] was found to be 10900; in assay [2], 1520.
For KRGRPGRPPSTNKK [O00539 35-49] the same measures were 2490 and 60.3.
On to KQASLKRPPTAGAQ [Q9UBC5 553-566], for which the normalised SPOT signal, Boehringer light units (BLU); mean over the file's lines of this peptide in assay [1] worked out at 55.2; in assay [2], 5.2.
On to KRKKPSRPAKTRKR [Q9UNZ9 85-98], for which the normalised SPOT signal, Boehringer light units (BLU); mean over the file's lines of this peptide in assay [1] was found to be 175; in assay [2] it was 109.
For KSKKFRRPDIQYPD [P10451 170-183] the same measures were 40.5 and 24.7.
Turning to ANPPPKRPVRASSR [Q9HCK1 771-784], the normalised SPOT signal, Boehringer light units (BLU); mean over the file's lines of this peptide in assay [1] is 8740; in assay [2], 14200.
For KPQTIKRPLNPLAS [Q9UKV6 127-140] the same measures were 52.2 and 9.
For KSQGPAKPPPPRKP [Q13444 758-772] the same measures were 7680 and 1320.
For KPPALPRPIRNLEV [P47895 16-29] the same measures were 958 and 118.
Take KPQRPRRPASPIST [P07360 22-35]: the normalised SPOT signal, Boehringer light units (BLU); mean over the file's lines of this peptide in assay [1] was 9220; in assay [2] it was 2580.
KRVVPKKPPPSPQP [Q13438 518-532]: the normalised SPOT signal, Boehringer light units (BLU); mean over the file's lines of this peptide was determined as 278 in assay [1] and 64.7 in assay [2].
For KPSRPPRPSRPPPP [O43584 85-98] the same measures were 46000 and 8020.
For KSQYFWRPKRMELS [Q9NYS8 813-826] the same measures were 232 and 733.
As for KSPIPRRPTQSFVK [Q9ULL0 591-604], the normalised SPOT signal, Boehringer light units (BLU); mean over the file's lines of this peptide in assay [1] is 574; in assay [2] it was 24.8.
For KSRTLKRPTVLEPI [O60469 1933-1946] the same measures were 50.9 and 29.5.
